What was measured:
HeLa Kyoto [1] = experiment: solubility change mitosis vs G1/S (difference of NP-40 vs SDS log2 ratios) (log2 ratio difference); higher = more soluble in mitosis
HeLa Kyoto [2] = experiment: solubility in G1/S (NP-40 vs SDS abundance) (log2 ratio); higher = more soluble; settings: cell cycle stage: G1/S
HeLa Kyoto [3] = experiment: thermal stability score vs G1/S (z-score of summed log2 fold changes over temperatures); higher = more thermally stable than in G1/S
HeLa Kyoto [4] = experiment: melting temperature (median over replicates), in situ; higher = more thermally stable
[5] = cell cycle stage: early G1 (4.5 h after nocodazole release)
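Wherever melting temperature (median over replicates), in situ is given: HeLa Kyoto cells synchronized by double thymidine or nocodazole block, proteins quantified by TMT10plex mass spectrometry, three independent biological replicates.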
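Wherever solubility change mitosis vs G1/S (difference of NP-40 vs SDS log2 ratios) is given: synchronized HeLa Kyoto cells (double thymidine block for G1/S, nocodazole release for mitosis), protein amounts in NP-40 versus SDS lysates quantified by mass spectrometry, three biological replicates.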
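Wherever solubility in G1/S (NP-40 vs SDS abundance) is given: HeLa Kyoto cells arrested at G1/S by double thymidine block, proteins quantified by TMT10plex mass spectrometry in mild NP-40 versus SDS extracts, three biological replicates.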
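Wherever thermal stability score vs G1/S (z-score of summed log2 fold changes over temperatures) is given: synchronized HeLa Kyoto cells, proteins quantified by TMT10plex mass spectrometry, three biological replicates, mitosis taken 0.5 h after nocodazole release, G1/S directly after double thymidine block.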

Sequence of OXCT1 (chain, as listed by the source): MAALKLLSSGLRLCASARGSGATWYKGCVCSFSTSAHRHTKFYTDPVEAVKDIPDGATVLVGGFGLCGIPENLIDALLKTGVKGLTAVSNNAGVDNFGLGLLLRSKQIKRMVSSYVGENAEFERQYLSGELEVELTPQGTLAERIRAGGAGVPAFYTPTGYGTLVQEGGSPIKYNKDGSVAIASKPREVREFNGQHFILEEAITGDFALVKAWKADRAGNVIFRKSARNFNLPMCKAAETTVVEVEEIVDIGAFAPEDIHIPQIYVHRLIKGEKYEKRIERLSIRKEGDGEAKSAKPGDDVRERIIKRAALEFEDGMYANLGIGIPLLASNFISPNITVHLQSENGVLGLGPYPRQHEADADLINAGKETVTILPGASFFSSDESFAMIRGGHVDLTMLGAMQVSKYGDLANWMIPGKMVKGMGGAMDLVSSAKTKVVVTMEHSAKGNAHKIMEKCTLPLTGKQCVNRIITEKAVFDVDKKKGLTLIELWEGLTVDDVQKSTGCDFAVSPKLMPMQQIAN

| Substance | solubility change mitosis (log2) (HeLa Kyoto [1]) | solubility in G1/S (log2) (HeLa Kyoto [2]) | thermal stability score (HeLa Kyoto [3]; [5]) | thermal stability score (HeLa Kyoto [3]; cell cycle stage: mitosis) | melting temperature (HeLa Kyoto [4]; cell cycle stage: G1/S) [°C] | melting temperature (HeLa Kyoto [4]; cell cycle stage: mitosis) [°C] |
| --- | --- | --- | --- | --- | --- | --- |
| MADILSQSETLASQDLSGDFKKPALPVSPAARSKAPASSSSNPEEVQKEGPTALQDSNSGEPDIPPPQPDCGDFRSLQEEQSRPPTAVSSPGGPARAPPYQEPPWGGPATAPYSLETLKGGTILGTRSLKGTSYCLFGRLSGCDVCLEHPSVSRYHAVLQHRASGPDGECDSNGPGFYLYDLGSTHGTFLNKTRIPPRTYCRVHVGHVVRFGGSTRLFILQGPEEDREAESELTVTQLKELRKQQQILLEKKMLGEDSDEEEEMDTSERKINAGSQDDEMGCTWGMGEDAVEDDAEENPIVLEFQQEREAFYIKDPKKALQGFFDREGEELEYEFDEQGHSTWLCRVRLPVDDSTGKQLVAEAIHSGKKKEAMIQCSLEACRILDTLGLLRQEAVSRKRKAKNWEDEDFYDSDDDTFLDRTGLIEKKRLNRMKKAGKIDEKPETFESLVAKLNDAERELSEISERLKASSQVLSESPSQDSLDAFMSEMKSGSTLDGVSRKKLHLRTFELRKEQQRLKGLIKIVKPAEIPELKKTETQTTGAENKAKKLTLPLFGAMKGGSKFKLKTGTVGKLPPKRPELPPTLMRMKDEPEVEEEEEEEEEEEKEKEEHEKKKLEDGSLSRPQPEIEPEAAVQEMRPPTDLTHFKETQTHENMSQLSEEEQNKDYQDCSKTTSLCAGPSASKNEYEKSRGELKKKKTPGPGKLPPTLSSKYPEDDPDYCVWVPPEGQSGDGRTHLNDKYGY [SLC4A1AP] | -0.0506 | 0.0907 | -0.0668 | 1.11 | 50.1 | 51.7 |
| MNGRADFREPNAEVPRPIPHIGPDYIPTEEERRVFAECNDESFWFRSVPLAATSMLITQGLISKGILSSHPKYGSIPKLILACIMGYFAGKLSYVKTCQEKFKKLENSPLGEALRSGQARRSSPPGHYYQKSKYDSSVSGQSSFVTSPAADNIEMLPHYEPIPFSSSMNESAPTGITDHIVQGPDPNLEESPKRKNITYEELRNKNRESYEVSLTQKTDPSVRPMHERVPKKEVKVNKYGDTWDE [OCIAD1] | 0.225 | 0.219 | -1.09 | -4.47 | 55.9 | 53.1 |
| MSSLSGKVQTVLGLVEPSKLGRTLTHEHLAMTFDCCYCPPPPCQEAISKEPIVMKNLYWIQKNAYSHKENLQLNQETEAIKEELLYFKANGGGALVENTTTGISRDTQTLKRLAEETGVHIISGAGFYVDATHSSETRAMSVEQLTDVLMNEILHGADGTSIKCGIIGEIGCSWPLTESERKVLQATAHAQAQLGCPVIIHPGRSSRAPFQIIRILQEAGADISKTVMSHLDRTILDKKELLEFAQLGCYLEYDLFGTELLHYQLGPDIDMPDDNKRIRRVRLLVEEGCEDRILVAHDIHTKTRLMKYGGHGYSHILTNVVPKMLLRGITENVLDKILIENPKQWLTFK [PTER] | -0.0354 | 0.0448 | -2.92 | -0.753 | 56.8 | 57 |
| MDGIVTEVAVGVKRGSDELLSGSVLSSPNSNMSSMVVTANGNDSKKFKGEDKMDGAPSRVLHIRKLPGEVTETEVIALGLPFGKVTNILMLKGKNQAFLELATEEAAITMVNYYSAVTPHLRNQPIYIQYSNHKELKTDNTLNQRAQAVLQAVTAVQTANTPLSGTTVSESAVTPAQSPVLRIIIDNMYYPVTLDVLHQIFSKFGAVLKIITFTKNNQFQALLQYGDPVNAQQAKLALDGQNIYNACCTLRIDFSKLVNLNVKYNNDKSRDYTRPDLPSGDGQPALDPAIAAAFAKETSLLAVPGALSPLAIPNAAAAAAAAAAGRVGMPGVSAGGNTVLLVSNLNEEMVTPQSLFTLFGVYGDVQRVKILYNKKDSALIQMADGNQSQLAMNHLNGQKMYGKIIRVTLSKHQTVQLPREGLDDQGLTKDFGNSPLHRFKKPGSKNFQNIFPPSATLHLSNIPPSVAEEDLRTLFANTGGTVKAFKFFQDHKMALLQMATVEEAIQALIDLHNYNLGENHHLRVSFSKSTI [PTBP2] | -0.0237 | 0.308 | 0.234 | 0.47 | 48.8 | 49 |
| MSADAAAGAPLPRLCCLEKGPNGYGFHLHGEKGKLGQYIRLVEPGSPAEKAGLLAGDRLVEVNGENVEKETHQQVVSRIRAALNAVRLLVVDPETDEQLQKLGVQVREELLRAQEAPGQAEPPAAAEVQGAGNENEPREADKSHPEQRELRPRLCTMKKGPSGYGFNLHSDKSKPGQFIRSVDPDSPAEASGLRAQDRIVEVNGVCMEGKQHGDVVSAIRAGGDETKLLVVDRETDEFFKKCRVIPSQEHLNGPLPVPFTNGEIQKENSREALAEAALESPRPALVRSASSDTSEELNSQDSPPKQDSTAPSSTSSSDPILDFNISLAMAKERAHQKRSSKRAPQMDWSKKNELFSNL [SLC9A3R1] | -0.0214 | 0.536 | -1.17 | -0.944 | 56.5 | 57.1 |
| MDCSLVRTLVHRYCAGEENWVDSRTIYVGHREPPPGAEAYIPQRYPDNRIVSSKYTFWNFIPKNLFEQFRRVANFYFLIIFLVQLIIDTPTSPVTSGLPLFFVITVTAIKQGYEDWLRHKADNAMNQCPVHFIQHGKLVRKQSRKLRVGDIVMVKEDETFPCDLIFLSSNRGDGTCHVTTASLDGESSHKTHYAVQDTKGFHTEEDIGGLHATIECEQPQPDLYKFVGRINVYSDLNDPVVRPLGSENLLLRGATLKNTEKIFGVAIYTGMETKMALNYQSKSQKRSAVEKSMNAFLIVYLCILISKALINTVLKYMWQSEPFRDEPWYNQKTESERQRNLFLKAFTDFLAFMVLFNYIIPVSMYVTVEMQKFLGSYFITWDEDMFDEETGEGPLVNTSDLNEELGQVEYIFTDKTGTLTENNMEFKECCIEGHVYVPHVICNGQVLPESSGIDMIDSSPSVNGREREELFFRALCLCHTVQVKDDDSVDGPRKSPDGGKSCVYISSSPDEVALVEGVQRLGFTYLRLKDNYMEILNRENHIERFELLEILSFDSVRRRMSVIVKSATGEIYLFCKGADSSIFPRVIEGKVDQIRARVERNAVEGLRTLCVAYKRLIQEEYEGICKLLQAAKVALQDREKKLAEAYEQIEKDLTLLGATAVEDRLQEKAADTIEALQKAGIKVWVLTGDKMETAAATCYACKLFRRNTQLLELTTKRIEEQSLHDVLFELSKTVLRHSGSLTRDNLSGLSADMQDYGLIIDGAALSLIMKPREDGSSGNYRELFLEICRSCSAVLCCRMAPLQKAQIVKLIKFSKEHPITLAIGDGANDVSMILEAHVGIGVIGKEGRQAARNSDYAIPKFKHLKKMLLVHGHFYYIRISELVQYFFYKNVCFIFPQFLYQFFCGFSQQTLYDTAYLTLYNISFTSLPILLYSLMEQHVGIDVLKRDPTLYRDVAKNALLRWRVFIYWTLLGLFDALVFFFGAYFVFENTTVTSNGQIFGNWTFGTLVFTVMVFTVTLKLALDTHYWTWINHFVIWGSLLFYVVFSLLWGGVIWPFLNYQRMYYVFIQMLSSGPAWLAIVLLVTISLLPDVLKKVLCRQLWPTATERVQTKSQCLSVEQSTIFMLSQTSSSLSF [ATP11A] | 0.163 | -0.526 | -1.06 | -0.922 | 53.8 | 53.8 |
| MVSHSELRKLFYSADAVCFDVDSTVIREEGIDELAKICGVEDAVSEMTRRAMGGAVPFKAALTERLALIQPSREQVQRLIAEQPPHLTPGIRELVSRLQERNVQVFLISGGFRSIVEHVASKLNIPATNVFANRLKFYFNGEYAGFDETQPTAESGGKGKVIKLLKEKFHFKKIIMIGDGATDMEACPPADAFIGFGGNVIRQQVKDNAKWYITDFVELLGELEE [PSPH] | -0.049 | 0.258 | -0.555 | -0.969 | 56.6 | 58.2 |
| OXCT1 | -0.0718 | 0.23 | -1.63 | -1.92 | 53 | 52.8 |
| MDLGAITKYSALHAKPNGLILQYGTAGFRTKAEHLDHVMFRMGLLAVLRSKQTKSTIGVMVTASHNPEEDNGVKLVDPLGEMLAPSWEEHATCLANAEEQDMQRVLIDISEKEAVNLQQDAFVVIGRDTRPSSEKLSQSVIDGVTVLGGQFHDYGLLTTPQLHYMVYCRNTGGRYGKATIEGYYQKLSKAFVELTKQASCSGDEYRSLKVDCANGIGALKLREMEHYFSQGLSVQLFNDGSKGKLNHLCGADFVKSHQKPPQGMEIKSNERCCSFDGDADRIVYYYHDADGHFHLIDGDKIATLISSFLKELLVEIGESLNIGVVQTAYANGSSTRYLEEVMKVPVYCTKTGVKHLHHKAQEFDIGVYFEANGHGTALFSTAVEMKIKQSAEQLEDKKRKAAKMLENIIDLFNQAAGDAISDMLVIEAILALKGLTVQQWDALYTDLPNRQLKVQVADRRVISTTDAERQAVTPPGLQEAINDLVKKYKLSRAFVRPSGTEDVVRVYAEADSQESADHLAHEVSLAVFQLAGGIGERPQPGF [PGM3] | -0.0835 | 0.186 | -0.282 | -0.735 | 51.4 | 51.2 |
| FASN | -0.203 | -0.0375 | -0.721 | 0.266 | 52.1 | 51.8 |
| MDALQLANSAFAVDLFKQLCEKEPLGNVLFSPICLSTSLSLAQVGAKGDTANEIGQVLHFENVKDVPFGFQTVTSDVNKLSSFYSLKLIKRLYVDKSLNLSTEFISSTKRPYAKELETVDFKDKLEETKGQINNSIKDLTDGHFENILADNSVNDQTKILVVNAAYFVGKWMKKFSESETKECPFRVNKTDTKPVQMMNMEATFCMGNIDSINCKIIELPFQNKHLSMFILLPKDVEDESTGLEKIEKQLNSESLSQWTNPSTMANAKVKLSIPKFKVEKMIDPKACLENLGLKHIFSEDTSDFSGMSETKGVALSNVIHKVCLEITEDGGDSIEVPGARILQHKDELNADHPFIYIIRHNKTRNIIFFGKFCSP [SERPINB5] | -0.146 | 0.403 | 1.51 | 0.174 | 52.3 | 52.6 |
| MQPQSVLHSGYFHPLLRAWQTATTTLNASNLIYPIFVTDVPDDIQPITSLPGVARYGVKRLEEMLRPLVEEGLRCVLIFGVPSRVPKDERGSAADSEESPAIEAIHLLRKTFPNLLVACDVCLCPYTSHGHCGLLSENGAFRAEESRQRLAEVALAYAKAGCQVVAPSDMMDGRVEAIKEALMAHGLGNRVSVMSYSAKFASCFYGPFRDAAKSSPAFGDRRCYQLPPGARGLALRAVDRDVREGADMLMVKPGMPYLDIVREVKDKHPDLPLAVYHVSGEFAMLWHGAQAGAFDLKAAVLEAMTAFRRAGADIIITYYTPQLLQWLKEE [ALAD] | -0.212 | 0.106 | -2.61 | -2.88 | 57 | 55.2 |
| CENPF | 0.109 | -0.00455 | 2.12 | 0.418 | 48.9 | 49.7 |
| MAPRLCSISVTARRLLGGPGPRAGDVASAAAARFYSKDNEGSWFRSLFVHKVDPRKDAHSTLLSKKETSNLYKIQFHNVKPEYLDAYNSLTEAVLPKLHLDEDYPCSLVGNWNTWYGEQDQAVHLWRFSGGYPALMDCMNKLKNNKEYLEFRRERSQMLLSRRNQLLLEFSFWNEPQPRMGPNIYELRTYKLKPGTMIEWGNNWARAIKYRQENQEAVGGFFSQIGELYVVHHLWAYKDLQSREETRNAAWRKRGWDENVYYTVPLVRHMESRIMIPLKISPLQ [NIPSNAP1] | -0.0766 | 0.0548 | -0.403 | -2.28 | 53.9 | 54.3 |
| DOCK9 | -0.156 | -0.203 | -0.162 | -0.395 | 51.4 | 50.6 |
| WDR45B | -0.118 | 0.0796 | 0.71 | -1.09 | 54.5 | 57.4 |
| MEVNPPKQEHLLALKVMRLTKPTLFTNIPVTCEEKDLPGDLFNQLMRDDPSTVNGAEVLMLGEMLTLPQNFGNIFLGETFSSYISVHNDSNQVVKDILVKADLQTSSQRLNLSASNAAVAELKPDCCIDDVIHHEVKEIGTHILVCAVSYTTQAGEKMYFRKFFKFQVLKPLDVKTKFYNAESDLSSVTDEVFLEAQIQNMTTSPMFMEKVSLEPSIMYNVTELNSVSQAGECVSTFGSRAYLQPMDTRQYLYCLKPKNEFAEKAGIIKGVTVIGKLDIVWKTNLGERGRLQTSQLQRMAPGYGDVRLSLEAIPDTVNLEEPFHITCKITNCSERTMDLVLEMCNTNSIHWCGISGRQLGKLHPSSSLCLALTLLSSVQGLQSISGLRLTDTFLKRTYEYDDIAQVCVVSSAIKVES [TRAPPC13] | -0.173 | 0.0799 | -0.207 | 0.0312 | 50 | 49.9 |

Source: the supplement of paper PMC5998384
